Experimental data reported in PMC10197177.

Tested on: BG4 (anti-G-quadruplex antibody)
Assay: sandwich ELISA
Settings: K1 pre-bound to immobilized wild-type spike, ELONA: 20 mM Tris, 5 mM KCl, 2 mM MgCl2, 0.5 mM CaCl2, pH 7.4, room temperature, BG4 sandwich ELISA: Methods give 20 mM Tris, 5 mM MgCl2 …

“AATGGATCCACATCTACGAGCTCGAACGCCCGGAGGAGACGGGGGCAGGGCGTGTTCACTGCAGACTTGACGAAGCT [K1 (truncated working aptamer)]” was tested, and the Kd was 1.77 nM.
